US20190111149A1 (MEDITOPE BIOSCIENCES, published 2019)

B1: Peptide 19: Ac-…XRCGGGK with Duostatin; -Glu-vc-PAB-Duostatin-; X = (S)-2-amino-5-(3-methyl-3H-diazirin-3-yl) pentanoic acid (peptide)
peptide: not shown
modifications: N-terminal acetyl; X10 = (S)-2-amino-5-(3-methyl-3H-diazirin-3-yl)pentanoic acid; Glu-vc-PAB-Duostatin conjugated
notes: also called Peptide 19 (with Duostatin); Peptide 19 (with 1 Duostatin per peptide, DAR 2)
B2: Peptide 20: Ac-…XRCGGGK with Duostatin; -Glu-vc-PAB-Duostatin-; X=(S)-2-amino-6-(3-methyl-3H-diazirin-3-yl) hexanoic acid (peptide)
peptide: not shown
modifications: N-terminal acetyl; X at position 10 = (S)-2-amino-6-(3-methyl-3H-diazirin-3-yl)hexanoic acid; -Glu-vc-PAB-Duostatin conjugated
B3: Peptide 19: Ac-…XRCGGGK with Duostatin; -Glu-vc-PAB-Duostatin-; X=(S)-2-amino-5-(3-methyl-3H-diazirin-3-yl) pentanoic acid (peptide)
peptide: not shown
modifications: N-terminal acetyl; X at position 10 = (S)-2-amino-5-(3-methyl-3H-diazirin-3-yl)pentanoic acid; -Glu-vc-PAB-Duostatin conjugated
notes: 5-carbon chain at position 10

Experiments:
[1] = target: T1, Photo optimized trastuzumab; meditope enabled (Tmab); experiment: BLI Octet, antibody on anti-human Fc tips
T1 construct: also called photo-optimized trastuzumab V2; photo-optimized meditope enabled Trastuzumab variant 2
T1 sequence (heavy, as listed by the source, chain 1 of 2): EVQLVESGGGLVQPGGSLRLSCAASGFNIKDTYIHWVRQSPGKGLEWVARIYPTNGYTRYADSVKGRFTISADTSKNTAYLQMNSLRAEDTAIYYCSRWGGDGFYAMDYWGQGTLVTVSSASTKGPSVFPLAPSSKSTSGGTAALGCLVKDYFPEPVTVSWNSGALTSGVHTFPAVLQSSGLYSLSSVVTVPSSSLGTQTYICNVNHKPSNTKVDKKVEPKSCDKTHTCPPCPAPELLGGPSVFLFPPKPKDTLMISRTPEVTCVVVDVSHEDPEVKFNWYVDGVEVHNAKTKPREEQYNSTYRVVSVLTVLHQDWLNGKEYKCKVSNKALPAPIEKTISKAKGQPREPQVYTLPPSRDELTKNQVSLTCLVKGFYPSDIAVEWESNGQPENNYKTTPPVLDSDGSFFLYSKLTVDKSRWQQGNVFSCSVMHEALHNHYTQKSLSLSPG
T1 sequence (light, as listed by the source, chain 2 of 2): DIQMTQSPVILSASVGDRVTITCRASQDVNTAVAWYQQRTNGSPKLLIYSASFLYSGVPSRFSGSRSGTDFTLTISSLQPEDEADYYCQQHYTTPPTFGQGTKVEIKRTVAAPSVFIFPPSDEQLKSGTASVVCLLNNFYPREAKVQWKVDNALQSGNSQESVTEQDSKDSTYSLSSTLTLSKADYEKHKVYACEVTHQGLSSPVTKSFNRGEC

[2] = target: T1, Photo optimized trastuzumab; meditope …; experiment: BLI Octet, antibody on anti-human Fc tips; Peptide 19, Table 9
[3] = target: T2, Meditope enabled Ocaratuzumab; experiment: BLI Octet, antibody on anti-human Fc tips
T2 construct: also called Ocaratuzumab enabled
T2 sequence (heavy, as listed by the source, chain 1 of 2): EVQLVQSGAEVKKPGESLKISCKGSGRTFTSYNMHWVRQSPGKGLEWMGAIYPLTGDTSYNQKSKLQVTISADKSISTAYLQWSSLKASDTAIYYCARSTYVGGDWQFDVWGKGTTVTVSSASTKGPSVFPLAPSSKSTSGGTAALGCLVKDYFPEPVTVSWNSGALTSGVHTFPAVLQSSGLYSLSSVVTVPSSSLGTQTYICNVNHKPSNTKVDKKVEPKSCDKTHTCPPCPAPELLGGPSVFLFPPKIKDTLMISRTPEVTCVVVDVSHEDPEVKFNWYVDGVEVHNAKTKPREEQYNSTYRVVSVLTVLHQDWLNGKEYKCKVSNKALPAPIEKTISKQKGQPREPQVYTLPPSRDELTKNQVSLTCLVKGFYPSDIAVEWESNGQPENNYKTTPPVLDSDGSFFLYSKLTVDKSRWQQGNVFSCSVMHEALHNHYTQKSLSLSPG
T2 sequence (light, as listed by the source, chain 2 of 2): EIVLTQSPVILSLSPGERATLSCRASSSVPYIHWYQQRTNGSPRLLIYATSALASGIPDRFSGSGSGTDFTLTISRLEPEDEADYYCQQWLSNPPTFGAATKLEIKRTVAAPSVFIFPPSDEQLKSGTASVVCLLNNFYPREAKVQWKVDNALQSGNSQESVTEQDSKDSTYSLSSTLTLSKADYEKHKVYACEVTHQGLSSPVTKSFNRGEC

MBI_CD19_1; (SAR3419) = experiment: BLI Octet, antibody on anti-human Fc tips
Chain of MBI_CD19_1; (SAR3419) (heavy, as listed by the source, chain 1 of 2): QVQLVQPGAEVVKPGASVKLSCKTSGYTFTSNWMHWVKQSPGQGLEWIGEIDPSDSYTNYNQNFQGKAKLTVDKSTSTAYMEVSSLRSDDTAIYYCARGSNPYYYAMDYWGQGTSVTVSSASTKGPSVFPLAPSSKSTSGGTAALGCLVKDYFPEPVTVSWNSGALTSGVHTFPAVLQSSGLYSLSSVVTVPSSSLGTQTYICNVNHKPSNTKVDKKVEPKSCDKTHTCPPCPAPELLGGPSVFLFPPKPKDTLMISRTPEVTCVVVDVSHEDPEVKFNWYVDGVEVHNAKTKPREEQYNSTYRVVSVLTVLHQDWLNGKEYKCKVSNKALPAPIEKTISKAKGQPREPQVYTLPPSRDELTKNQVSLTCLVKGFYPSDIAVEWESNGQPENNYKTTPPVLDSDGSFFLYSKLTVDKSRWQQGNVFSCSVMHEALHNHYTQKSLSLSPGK
Chain of MBI_CD19_1; (SAR3419) (light, as listed by the source, chain 2 of 2): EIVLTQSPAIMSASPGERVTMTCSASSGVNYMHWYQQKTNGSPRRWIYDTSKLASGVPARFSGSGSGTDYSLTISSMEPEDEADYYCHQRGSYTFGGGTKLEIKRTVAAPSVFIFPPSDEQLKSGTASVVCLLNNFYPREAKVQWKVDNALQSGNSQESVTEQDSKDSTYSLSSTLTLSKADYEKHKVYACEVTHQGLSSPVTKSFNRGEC

MBI_CD19_2; (MOR208) = experiment: BLI Octet, antibody on anti-human Fc tips
Chain of MBI_CD19_2; (MOR208) (heavy, as listed by the source, chain 1 of 2): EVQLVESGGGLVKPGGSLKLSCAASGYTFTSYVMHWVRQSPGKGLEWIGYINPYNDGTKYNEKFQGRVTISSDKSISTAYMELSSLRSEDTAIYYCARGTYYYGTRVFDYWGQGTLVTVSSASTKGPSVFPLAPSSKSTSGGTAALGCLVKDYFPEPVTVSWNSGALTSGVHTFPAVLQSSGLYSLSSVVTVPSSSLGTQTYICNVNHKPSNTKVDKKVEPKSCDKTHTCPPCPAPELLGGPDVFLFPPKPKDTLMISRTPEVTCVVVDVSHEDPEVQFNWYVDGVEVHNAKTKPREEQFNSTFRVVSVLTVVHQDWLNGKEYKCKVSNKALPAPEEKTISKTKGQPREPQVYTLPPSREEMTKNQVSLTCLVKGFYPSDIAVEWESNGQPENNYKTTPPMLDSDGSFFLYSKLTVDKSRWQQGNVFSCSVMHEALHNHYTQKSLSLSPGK
Chain of MBI_CD19_2; (MOR208) (light, as listed by the source, chain 2 of 2): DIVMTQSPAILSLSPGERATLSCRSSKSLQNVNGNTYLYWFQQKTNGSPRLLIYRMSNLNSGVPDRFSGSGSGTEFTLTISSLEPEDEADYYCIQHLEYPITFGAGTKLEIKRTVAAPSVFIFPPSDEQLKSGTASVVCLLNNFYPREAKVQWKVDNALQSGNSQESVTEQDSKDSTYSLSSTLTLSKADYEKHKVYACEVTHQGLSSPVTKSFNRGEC

[4] = target: T3, Meditope enabled Clivatuzumab; experiment: BLI Octet, antibody on anti-human Fc tips
T3 construct: also called Clivatuzumab enabled
T3 sequence (heavy, as listed by the source, chain 1 of 2): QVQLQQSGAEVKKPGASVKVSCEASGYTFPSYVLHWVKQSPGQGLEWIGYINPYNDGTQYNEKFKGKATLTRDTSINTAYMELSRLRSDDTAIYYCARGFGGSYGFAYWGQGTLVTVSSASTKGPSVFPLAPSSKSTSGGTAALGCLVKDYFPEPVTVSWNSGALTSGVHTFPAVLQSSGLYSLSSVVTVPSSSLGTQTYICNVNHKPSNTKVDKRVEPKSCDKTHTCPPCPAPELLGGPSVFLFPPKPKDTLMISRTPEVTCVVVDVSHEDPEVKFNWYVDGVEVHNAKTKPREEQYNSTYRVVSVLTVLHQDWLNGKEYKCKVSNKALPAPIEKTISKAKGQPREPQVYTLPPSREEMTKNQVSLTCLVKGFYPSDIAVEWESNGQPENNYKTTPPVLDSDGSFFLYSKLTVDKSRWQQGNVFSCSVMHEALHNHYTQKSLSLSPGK
T3 sequence (light, as listed by the source, chain 2 of 2): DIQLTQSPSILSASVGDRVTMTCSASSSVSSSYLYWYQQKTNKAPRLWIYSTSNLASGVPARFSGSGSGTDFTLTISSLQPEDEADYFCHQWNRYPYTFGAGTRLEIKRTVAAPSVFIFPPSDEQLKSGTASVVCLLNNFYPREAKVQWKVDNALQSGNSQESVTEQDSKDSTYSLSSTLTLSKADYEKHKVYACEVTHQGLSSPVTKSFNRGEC

[5] = target: T1, Photo optimized trastuzumab; meditope …; experiment: BLI Octet, antibody on anti-human Fc tips; remark: listed apart in the source
[6] = target: T4, Meditope enabled Trastuzumab; experiment: BLI Octet, antibody on anti-human Fc tips
T4 construct: also called Trastuzumab enabled
T4 sequence (heavy, as listed by the source, chain 1 of 2): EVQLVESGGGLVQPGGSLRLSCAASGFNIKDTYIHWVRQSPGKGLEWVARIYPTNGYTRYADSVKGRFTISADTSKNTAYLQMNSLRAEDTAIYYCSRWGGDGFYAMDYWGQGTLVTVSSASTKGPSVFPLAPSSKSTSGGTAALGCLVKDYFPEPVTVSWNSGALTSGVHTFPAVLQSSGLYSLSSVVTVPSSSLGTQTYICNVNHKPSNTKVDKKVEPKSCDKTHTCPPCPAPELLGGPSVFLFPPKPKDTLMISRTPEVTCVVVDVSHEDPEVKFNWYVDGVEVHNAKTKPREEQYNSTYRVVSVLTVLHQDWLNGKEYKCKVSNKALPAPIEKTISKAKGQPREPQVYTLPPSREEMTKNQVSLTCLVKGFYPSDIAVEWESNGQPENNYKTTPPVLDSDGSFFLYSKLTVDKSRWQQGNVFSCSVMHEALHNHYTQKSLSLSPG
T4 sequence (light, as listed by the source, chain 2 of 2): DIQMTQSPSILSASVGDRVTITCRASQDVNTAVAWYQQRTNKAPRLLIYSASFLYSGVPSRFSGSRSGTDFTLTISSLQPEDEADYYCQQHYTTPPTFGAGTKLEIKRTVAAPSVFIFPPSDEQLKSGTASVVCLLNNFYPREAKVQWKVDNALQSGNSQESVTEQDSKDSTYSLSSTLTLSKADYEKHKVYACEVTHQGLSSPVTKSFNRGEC

[7] = target: T5, Meditope enabled Lintuzumab; experiment: BLI Octet, antibody on anti-human Fc tip, peptide 12 nM
T5 construct: also called Lintuzumab enabled
T5 sequence (VH, as listed by the source, chain 1 of 2): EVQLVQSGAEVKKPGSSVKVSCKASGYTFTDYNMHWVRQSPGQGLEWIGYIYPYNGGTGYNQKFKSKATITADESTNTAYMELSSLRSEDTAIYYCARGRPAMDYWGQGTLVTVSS
T5 sequence (VL, as listed by the source, chain 2 of 2): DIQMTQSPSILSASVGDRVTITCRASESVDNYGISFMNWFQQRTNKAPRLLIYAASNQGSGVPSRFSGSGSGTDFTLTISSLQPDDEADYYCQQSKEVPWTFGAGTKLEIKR

[8] = target: T5, Meditope enabled Lintuzumab; experiment: BLI Octet, antibody on anti-human Fc tip, peptide 1000 nM; Peptide 20
[9] = target: T5, Meditope enabled Lintuzumab; experiment: BLI Octet, antibody on anti-human Fc tip, peptide 333 nM
[10] = target: T5, Meditope enabled Lintuzumab; experiment: BLI Octet, antibody on anti-human Fc tip, peptide 37 nM
[11] = target: T5, Meditope enabled Lintuzumab; experiment: BLI Octet, antibody on anti-human Fc tip, peptide 111 nM
[12] = target: T6, Meditope enabled Panitumumab; experiment: BLI Octet, antibody on anti-human Fc tip, peptide 12 nM
T6 construct: also called Panitumumab enabled
T6 sequence (VH, as listed by the source, chain 1 of 2): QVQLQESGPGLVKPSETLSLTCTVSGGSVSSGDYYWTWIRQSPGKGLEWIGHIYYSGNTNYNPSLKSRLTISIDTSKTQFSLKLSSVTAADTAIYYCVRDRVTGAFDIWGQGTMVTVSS
T6 sequence (VL, as listed by the source, chain 2 of 2): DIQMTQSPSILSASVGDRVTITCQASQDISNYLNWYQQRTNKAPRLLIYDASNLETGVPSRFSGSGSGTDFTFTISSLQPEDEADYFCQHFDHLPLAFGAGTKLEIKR

[13] = target: T6, Meditope enabled Panitumumab; experiment: BLI Octet, antibody on anti-human Fc tip, peptide 37 nM

| Binder | Kd [1] | Kd [2] | binding result [3] | binding result (MBI_CD19_1; (SAR3419)) | Kd (MBI_CD19_2; (MOR208)) | binding result [4] | Kd [5] | Kd [6] | Kd [7] | Kd [8] | Kd [9] | Kd [10] | Kd [11] | Kd [12] | Kd [13] |
| --- | --- | --- | --- | --- | --- | --- | --- | --- | --- | --- | --- | --- | --- | --- | --- |
| B1 | 42.8 nM | 120 nM | no binding | no binding | 33.8 nM | no binding | 33.8 nM | 149 nM | – | – | – | – | – | – | – |
| B2 | – | – | – | – | – | – | – | – | 246 nM | 19800 nM | 6550 nM | 1210 nM | 3340 nM | – | – |
| B3 | – | – | – | – | – | – | – | – | 55.5 nM | – | 1170 nM | 5680 nM | 3000 nM | < 0.001 nM | < 0.001 nM |
